Measurements: a protein production outcome set (Wang et al. 2014)

Experiment: label from the status in PepcDB records

MDMRVSWFLLLLPFVLTSALAATSAASHASGPPAFMGQLTLLLLVAGATAFASFRLGLVPIIGFLFAGVLAGPSALGIIDDPALIGAASEIGVMLLLFTIGIEFSLDKLARIFRLIFVGGGLQVLLTVAAVTGVLLAFGVSLPNAVFTGFLLSLSSTAIVTKILESRGGVGSPTGQASLGILIFQDLAVVVMVLLVPMLAGQGGGAGGLVVALLKAGGIVAAVLLLARRVVPKLLEVVARTCSQEIFLLSTLSLCFATAYLTSLAGVSLALGAFLAGLLVSESRFGQQAFGEILPLQILFSAAFFLSVGLQLDLGFLWTHLPLVLGAVAVFAVLKALAAALSVRLLGFPLATAAATGWLLAQVGEFSFVLESSGRALGLSPAGLGETGTQTFIAATVLLMALTPVMATLGERLGALGRARPAPTAAPAEAPTRAEPNPEAPLAHLSGHVLVAGFGDHARRLVKGLAAQQVPFGVLTLSPDGAAQVTAHGYPVLIGDYARAGLLGDAGLASARALVVLDDVPEMTARVIGVARTLNPELTIVAHTDEPGEIATLRGVGATHVLTSTDAVARGVLGL
protein production: failed

MNAENNQTTTTHSKVISHVFCTGTAKLGSVGPPIGLVDIGVSEVAYIFRVSLPGIEKNQDKIKCEIQREGRVCIQGVIPEIAIPSDTGCLYRMQVQQLCPPGPFSITFNLPGQVDPRLFSPNFRSDGIFEVVVVKLGVRIPTS
protein production: failed

MKDMKMQSSPETMMTRIPTPDPHSTGVREDAMDSVCKPWKLYENPYYCSSQSQQHQHQRKAFIWDLNFIKVFMESELGKAQDEIKELKAELDYERKARRRAELMIKKLAKDVEEERMAREAEEMQNKRLFKELSSEKSEMVRMKRDLEEERQMHRLAEVLREERVQMKLMDARLFLEEKLSELEEANRQGERERNRMMKPKILERACSSPARRRCENPQIKRGINPFPRVMRAIRSKSEKWGSKLECQKVQLKILLRQKTTPRCTPLLSSPPP
protein production: failed

MTQVSIIVPVLNEESTIHSAVSRLCRDFPDCELIVVDGGSTDATAELAALHATVIGSERGRAKQMNEGARHASGGILWFIHADTAIEPEALGQIRSVLADPAVVAGGLTLRFDRRTPALNYLAWTSNARARRLHHIFGDQAMFIRRTAFDELGGFPDLAIMEDLEMSRRLHRRGPLRLLPATSTASSRRLTAHGTWRMIAFMQYLKLLYFAGADPEAIRARYTAGPRLFPKRNPATLEHHHHHH
protein production: failed

MSLPISLTDFFPIQGGMATRMVIEGANFGTDLSQIKVFFNQKEASILNVKNSIIYLLVPKLPGNDCIVTVKVGNQEARFTRNFQYIENYSVTTIAGQPGTNLFVEGTLAAAQFGPVQHLAIDDENNLFITERNGSDGKGTCSVLNEESGTVTFLFKASDNLNVPTVNAQTQNVYIPLDGGYTFYELNPVNQWIAKSRLVLHPSKEQQEAGMDDFEINWKHSLAFSRYDNMIYTRSYGGDLIKVDPETRVGQKIGNFFPNTDSFIVAHPTQPEILYIAYAAKHVIYTYNIETGEHKLFAGAFGQSGWNDGIATDAEFNSPRQMSLDMEGNIYIADSGNHCIRMIDKNGIVTTPIGQPGEAGYADGSPDMALLNDPRGVAVNSEGDVYIADLGNRCIRKLTLQLEHHHHHH
protein production: not failed

MSVTTTETTGTAPALPRKTLGLAMIGLAVMMTLLHYAGLLPAWLHRLPEAIIPPFATWLDAIFNFVKDDLGLLALTRLLTDGLEVVLDATANLLFGKRRWPNIGPIPWSAIAAMTAVVGYYLGGWRMALLAGGTFVWTAMIGQWDIAMQTMSVLVVAAPLAFAIGLVLGISAWKSPSFDAVLRPVLAVLQTLPFFTYLLPAVIFFKVGPTAGAVATTVYAIPPMILMTTLGLQKVSPEVVEAGKMSGCTRWQMLRHVYIPAARTEILVGVNQVIMLCLAMVVLTAFIGMPGLGAKLLAMMGSFKIGRSFEIGVTIVLLAVTLDRMSKAWVVKLPEHFERGTPFWIRHKFLLMAIGAFVGFTLIAQVVPILSEVGRKQSWSQGKEIDTLIKGFLAIDAVQAITNSIRYVLNIWVLNPLRDFMLSIPTVAFVLFISAAALLVAGRREAVLAAAFFGLVALTGWWDRSVITLYSVLAAVSIALLLGVPIGVVAARKEKTANAVLLACDTAQTFPSFIYLIPAIMLFGITATSVVMSILIFSMVPLVRYTIEGLRNVPDEMTEAADMAGATRMQKLWNVQLPLALPTMAVGFNQAIMFAFFMVIIAAFIGTQDLGQELQRTLAGTDLGKNFVLGICVTLMALTFDMVIMKWADDKKARLGLN
protein production: failed

MPQVKLKEGEPVDVAIRRFKRSCEKAGVLADVRKREFYEKPTQERKRKKAAAVKRYQKKLARESVRTTRLY
protein production: failed

MCGVELDSLISQVKDLLPDLGEGFILACLEYYHYDPEQVINNILEERLAPTLSQLDRNLDREMN
protein production: not failed

MSKRANKLVIVTEKVLLKKVAKIIEEAGATGYTVVDTGGKGSRNVRSTGKPNTSDTDSNVKFEVLTENREMAEKIADQVAIKFFTDYAGIIYICEAEVLYGRTFCGPDGC
protein production: not failed

MCIGFCIDRLDKGFLYTCHSTICRLVAQNMKKSLIHIGDGLGLSLLIEPTGSKSWRFRYRFGGKPKMISFGAYPLVSLAEARKKRDEARKQVLDGINPSEHRKAQKLNLMSESENTFETIAREWHTMKSVCWSVGYASDIMEAFRNDIFPYVGKRSIAEVKPLELLNVMRKMEKRGALEKMKKVRQRCSEVFRYAIATGRAEYNPAADLSSALEVHQSHHFPFLKADEIPDFLRALEGYTGSKLVRIATKLLLITGVRTIELRAALWSEFDLGNAIWEIPEERMKKRRAHLVPLSTQALDLLNELKIMTGNYRYVFPGRNNPNKPMSEASINQVIKRIGFGGEVTGHGFRHMLSTILHEEGFDSSFIEIQLAHVDRNSIRGTYNHAQYLEKRRHMMQYYSDYVIGKDF
protein production: failed

MMTQPMPGKPAEDAENELDIRGLFRTLWAGKLWIIGMGLAFALIALAYTFFARQEWSSTAITDRPTVNMLGGYYSQQQFLRNLDVRSNMASADQPSVMDEAYKEFVMQLASWDTRREFWLQTDYYKQRMVGNSKADAALLDEMINNIQFIPGDFTRAVNDSVKLIAETAPDANNLLRQYVAFASQRAASHLNDELKGAWAARTIQMKAQVKRQEEVAKAIYDRRMNSIEQALKIAEQHNISRSATDVPAEELPDSEMFLLGRPMLQARLENLQAVGPAFDLDYDQNRAMLNTLNVGPTLDPRFQTYRYLRTPEEPVKRDSPRRAFLMIMWGIVGGLIGAGVALTRRCSK
protein production: not failed

MDKPVVRDAALLIFRAVLGVIFVAHGWEKLFISGVTKTTGQFSAWGVPQPKLSVWITSISELLGGAFLVVGLLTTFVAGALALLIAAAIYFVHLSSGFFTVENGIEFPLLIIVSLLVIVVFGSGRASVDGVLTRG
protein production: failed

MSVPTTMFRLTGRDYPPAKLSHASLIIIDAQKEYLSGPLKLSGMDEAVANIARLLDAARKSGRPIIHVRHLGTVGGRFDPQGPAGQFIPGLEPLEGEIVIEKRMPNAFKNTKLHETLQELGHLDLIVCGFMSHSSVSTTVRRAKDYGYRCTLVEDASATRDLAFKDGVIPAAQIHQCEMAVMADNFACVAPTASLI
protein production: not failed

MSQHLFTAFILTALAGLSTGIGSLIAFVTKHTNKTFLSVSLGFSAGVMIYVSMIEIFPTAQTILTKAMDKKSGSWLTVLAFFGGILLIAIIDKLIPSEENPHEIKTIEEEDQKPTKLMRMGLMTAIAIGIHNFPEGLATFISGLQDASIAIPIVIAIAIHNIPEGIAVSVPIYQATGSKKKAFTYSFLSGLAEPLGAIIGWFLLMPIMNNIVYGAIFSAVAGIMVFISLDELLPAAEEYGKHHLAIYGVISGMLIMAVSLLLFI
protein production: failed

MSHSIEQLSINTIRTLSIDAIEKANSGHPGMPMGAAPMAYTLWTQFMKHNPNNPTWFNRDRFVLSAGHGSMLLYSLLHLSGYDVTMDDLKNFRQWGSKTPGHPEYGHTAGVDATTGPLGQGIATAVGMAMAERHLAAKYNRDAYNIVDHYTYAICGDGDLMEGVSAEASSLAAHLQLGRLVVLYDSNDISLDGDLNRSFSESVEDRYKAYGWQVIRVEDGNDIEAIAKAIEEAKADEKRPTLIEVRTTIGFGSPNKSGKSASHGSPLGVEETKLTKEAYAWTAEQDFHVAEEVYENFRKTVQDVGETAQAEWNTMLGEYAQAYPELANELQAAMNGLLPEGWEQNLPTYELGSKAATRNSSGAVINAIAESVPSFFGGSADLAGSNKTYMNNEKDFTRDDYSGKNIWYGVREFAMGAAMNGIALHGGLKTYGGTFFVFSDYLRPAIRLAALMQLPVTYVFTHDSIAVGEDGPTHEPIEQLAALRAMPNVSVIRPADGNESVAAWRLALESTNKPTALVLTRQDLPTLEGAKDDTYEKVAKGAYVVSASKKETADVILLATGSEVSLAVEAQKALAVDGVDASVVSMPSMDRFEAQTAEYKESVLPKAVTKRFAIEMGATFGWHRYVGLEGDVLGIDTFGASAPGEKIMEEYGFTVENVVRKVKEML
protein production: not failed

XRKPILAALTLAGLGLAQEFITIGSGSTTGVYFPVATGIAKLVNDANVGIRANARSTGGSVANINAINAGEFEXALAQNDIAYYAYQGCCIPAFEGKPVKTIRALAALYPEVVHVVARKDAGIRTVADLKGKRVVVGDVGSGTEQNARQILEAYGLTFDDLGQAIRVSASQGIQLXQDKRADALFYTVGLGASAIQQLALTTPIALVAVDLNRIQAIAKKYPFYVGFNIPGGTYKGVDVTTPTVAVQAXLIASERLSEETVYKFXKAVFGNLEAFKKIHPNLERFFGLEKAVKGLPIPLHPGAERFYKEAGVLK
protein production: not failed

MRNHKQSDRVLNLPAGYFGIVLGTIGMGFAWRYASQIWGISHWPGDIMVILAMIIWALLTLAFLSRLVRFPHSVMAEVRHPVMSSFVSLFPATTMLVAIGFVPWYRPLAVALFSVGVVIQLAYAAWQTAGLWRGAHPEEATTPGLYLPTVANNFISAMACGALGYNDAGLVFLGAGVFSWLSLEPVILQRLRSCGELPAVLRTSLGIQLAPALVACSAWLSVNGGEGDTLAKMLFGYGLLQLLFMLRLMPWYLSQPFNASFWSFSFGVSALATTGLHLGHGSESGLFHILAVPLFIFTNAIIALLLVRTFLLLVQGTLLIRTERAALLKTEEKNDRS
protein production: failed

SVSLVGPAPWGFRLQGGKDFNMPLTISSLKDGGKASQAHVRIGDVVLSIDGISAQGMTHLEAQNKIKACTGSLNMTLQRASAAAKSEPVS
protein production: not failed

MDMLFQWLLLTAAVAAGWAVGRYGNRSGRASRAIMDEDSVRDRLQFLFTNYSDQAVDNFVQSLAVNKDTVSLHLSIGSHFRNKGETDRAILIHQNLLARPELPARYSPQVTQELAMDYLNAGLLDRAEALFHQLMGDREYGRRSAIALIELYQQEREWEKAAQVAKTLTRSDADPATFKALAYITCELSDGALSRNDDRWTAQKLAKEALDYDRSCVRATLLLMKLQIRQGNFREAANQSLKIFDQNPEFGPEAIDRLMKLEREHGDVSRLYKKLRKLYEQYPSTSLLLALVESVERSSGRPAAIDLLRMELETRPSVRGLLRLVEMAGYEKGMTTDEGRLVSRIGHLILANRPVYRCVSCGFSGQQLHWLCPSCKQWETVRPIQGVEAE
protein production: failed
